{"source": "paper PMC2691817", "about": "(Nucleic Acids Research, 2009)", "key": {"SEC": {"target": "the molecule itself", "assay": "SEC"}, "SeqAΔ(41-59)-A25R": {"target": "T1, SeqAΔ(41-59)-A25R (Escherichia coli, UniProt P0AFY8 1-181, A25R;del41-59)", "T1 sequence": "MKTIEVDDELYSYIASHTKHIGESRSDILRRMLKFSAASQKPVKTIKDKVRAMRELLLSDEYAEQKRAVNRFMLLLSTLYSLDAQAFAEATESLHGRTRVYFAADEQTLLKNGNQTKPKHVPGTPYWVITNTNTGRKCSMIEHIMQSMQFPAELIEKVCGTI", "assay": "EMSA"}}}
{"binder": "SeqAΔ(41–59)-A25R (natural protein, E. coli, UniProt P0AFY8 1-181, looked up) MKTIEVDDELYSYIASHTKHIGESRSDILRRMLKFSAASQKPVKTIKDKVRAMRELLLSDEYAEQKRAVNRFMLLLSTLYSLDAQAFAEATESLHGRTRVYFAADEQTLLKNGNQTKPKHVPGTPYWVITNTNTGRKCSMIEHIMQSMQFPAELIEKVCGTI", "values": [{"measurement": "stoichiometry N", "setting": "SEC", "result": 2}]}
{"binder": "SeqA-A25R (natural protein, E. coli, UniProt P0AFY8 1-181, looked up) MKTIEVDDELYSYIASHTKHIGESRSDILRRMLKFSAASQPAAPVTKEVRVASPAIVEAKPVKTIKDKVRAMRELLLSDEYAEQKRAVNRFMLLLSTLYSLDAQAFAEATESLHGRTRVYFAADEQTLLKNGNQTKPKHVPGTPYWVITNTNTGRKCSMIEHIMQSMQFPAELIEKVCGTI", "values": [{"measurement": "binding result", "setting": "SEC", "result": "binds"}]}
{"binder": "hemimethylated tandem GATC duplex (crystallization oligonucleotide) (dsDNA, N6-methyladenine at positions 7 and 16 of strand 1; strand 2 unmethylated) DNA 1: GAGTCGATCGGCGGGATCCTTA DNA 2: TCTAAGGATCCCGCCGATCGAC", "values": [{"measurement": "Kd", "setting": "SeqAΔ(41-59)-A25R", "result": "~90", "unit": "nM"}]}
